Entries after “also recorded” stand apart in the source; their conditions may differ.
Experiments:
EphA2 receptor [1] = conditions: monomeric agents; cited from earlier work
Description: In order to evaluate the ability of each agent to activate the receptor, we tested them in various cellular assays as reported below. Because receptor activation causes its internalization and degradation, we opted to monitor the ability of each agent to reduce EphA2 levels over time, after exposure of cells to test ligands. […] First, we wanted to explore the effect of the linker length between the monomers and therefore tested side by sid ...

EphA2 receptor [2] = assay: EphA2 degradation, Western blot of BxPC3 cell lysates; assay type: cell-based; conditions: BxPC3 cells, 1 h, several concentrations
Experimental: In order to evaluate the ability of each agent to activate the receptor, we tested them in various cellular assays as reported below. Because receptor activation causes its internalization and degradation, we opted to monitor the ability of each agent to reduce EphA2 levels over time, after exposure of cells to test ligands. […] For these experiments we initially treated HCT116 cells with 10 μM concentration of each agent for 2.5 h, and cells lysates were probed for total EphA2 using anti-EphA2 antibody (1C11A12; Thermo Fisher Scientific) (Figure 3a). […] Because these agents had optimized side chains, we expected these to work at much lower concentrations compared to dimeric agents derived from 135B12 (Table 1).
Figure 3 Dimeric and tetrameric EphA2 agonistic ligands degrade EphA2 receptor. […] Total ERK1/2 blot was used as a loading control.
Figure 5 Pharmacological inhibition of EphA2 expression partially impairs migration of pancreatic cancer cells. […] (c) Western blot of BxPC3 cell lysates after exposure for 5 min, 1 h or 24 h to indicated agents. (d) Representative images from treated wells at times 0 and 30 h. **, p < 0.005; ***, p < 0.001. Error bars represent standard deviation. […]

EphA2 receptor [3] = assay: EphA2 degradation, Western blot of HCT116 cell lysates; assay type: cell-based; conditions: HCT116 cells, ephrinA1-Fc 1 μg/mL, 2.5 h
WT-BxPC3 cells = assay: Scratch wound cell migration assay (IncuCyte S3), WT-BxPC3; assay type: cell-based
Description: The monomeric, unbound EphA2 receptor is known to be pro-oncogenic, inducing cell migration of cancer cells, while ephrinA1-Fc, inducing EphA2 dimer formation can suppressed this activity. To more directly examine the effect EphA2 on pancreatic cancer cell migration we first prepared a stable BxPC3 EphA2 knockout (KO) cell line and monitored its migratory properties using the scratch wound method and live-cell analysis (IncuCyte S3, Sartorius) (Figure 4). Briefly, homogeneous scratch wounds on plated cells were created by a 96-pin mechanical device (WoundMaker, Sartorius, Göttingen, Germany). Subsequently, live-cell imaging was performed to monitor the rate of wound closure. As controls, we also tested wild-type (WT) BxPC3 cells, and each cell type was treated with ephrinA1-Fc, or Fc as control (Figure 4).
Cells were plated at 50 × 10^3 cells/well density in 96-well ImageLock plates (Sartorius). The following day, cells were scratched using the WoundMaker (Sartorius) and washed three times with PBS. Subsequently, cells were treated with the indicated compounds in RPMI-1640 complete media. […] Plates were imaged every two hours using IncuCyte S3 (Sartorius), and relative wound areas were analyzed using the algorithm of the imager cell migration software module.

EphA2-KO BxPC3 cells = assay: Scratch wound cell migration assay (IncuCyte S3), EphA2-KO BxPC3; assay type: cell-based; conditions: EphA2-KO BxPC3, ephrinA1-Fc versus Fc
Description: The monomeric, unbound EphA2 receptor is known to be pro-oncogenic, inducing cell migration of cancer cells, while ephrinA1-Fc, inducing EphA2 dimer formation can suppressed this activity. To more directly examine the effect EphA2 on pancreatic cancer cell migration we first prepared a stable BxPC3 EphA2 knockout (KO) cell line and monitored its migratory properties using the scratch wound method and live-cell analysis (IncuCyte S3, Sartorius) (Figure 4). Briefly, homogeneous scratch wounds on plated cells were created by a 96-pin mechanical device (WoundMaker, Sartorius, Göttingen, Germany). Subsequently, live-cell imaging was performed to monitor the rate of wound closure. As controls, we also tested wild-type (WT) BxPC3 cells, and each cell type was treated with ephrinA1-Fc, or Fc as control (Figure 4). […]
Cells were plated at 50 × 10^3 cells/well density in 96-well ImageLock plates (Sartorius). […] Plates were imaged every two hours using IncuCyte S3 (Sartorius), and relative wound areas were analyzed using the algorithm of the imager cell migration software module.

BxPC3 cells = assay: Cell proliferation during migration study; assay type: cell-based; conditions: BxPC3, treatments of the migration assay
Description: Subsequently, we probed the effect of the pharmacological inhibition of EphA2 by our dimeric agents on the migratory properties of WT-BxPC3 in a similar assay (Figure 5a). […] Of note is that cell proliferation was not affected by either treatment with ephrinA1-Fc or by our agents.

## COc1ccc(C[C@H](NC(=O)[C@H](C)NC(=O)[C@H](CC(C)C)NC(=O)c2oc3c(OC)c(OC)ccc3c2C)C(=O)N2CCC[C@H]2C(=O)N[C@@H](CC(=O)O)C(=O)N[C@@H](C)C(=O)N[C@H](C(=O)N2C[C@H](O)C[C@H]2C(=O)N[C@@H](Cc2ccc(Cl)cc2)C(=O)N[C@@H](CCCNC(=N)N)C(=O)N2CCC[C@H]2C(N)=O)C(C)C)cc1 [135H11]
EphA2 receptor [1]
  concentration at which receptor activation was shown: ≥ 100 µM

## COc1ccc(C[C@H](NC(=O)[C@H](C)NC(=O)[C@H](CC(C)C)NC(=O)c2oc3c(OC)c(OC)ccc3c2C)C(=O)N2CCC[C@H]2C(=O)N[C@@H](CC(=O)O)C(=O)N[C@@H](C)C(=O)N[C@H](C(=O)N2C[C@H](O)C[C@H]2C(=O)N[C@@H](Cc2ccc(Cl)cc2)C(=O)N[C@@H](CCCNC(=N)N)C(=O)N2CCC[C@H]2C(=O)NCC(=O)NCCCC[C@H](NC(=O)CNC(=O)[C@@H]2CCCN2C(=O)[C@H](CCCNC(=N)N)NC(=O)[C@H](Cc2ccc(Cl)cc2)NC(=O)[C@@H]2C[C@@H](O)CN2C(=O)[C@@H](NC(=O)[C@H](C)NC(=O)[C@H](CC(=O)O)NC(=O)[C@@H]2CCCN2C(=O)[C@H](Cc2ccc(OC)cc2)NC(=O)[C@H](C)NC(=O)[C@H](CC(C)C)NC(=O)c2oc3c(OC)c(OC)ccc3c2C)C(C)C)C(=O)N[C@@H](CCCCN)C(=O)NCCCC[C@H](NC(=O)[C@H](CCCCN)NC(=O)[C@H](CCCCNC(=O)CNC(=O)[C@@H]2CCCN2C(=O)[C@H](CCCNC(=N)N)NC(=O)[C@H](Cc2ccc(Cl)cc2)NC(=O)[C@@H]2C[C@@H](O)CN2C(=O)[C@@H](NC(=O)[C@H](C)NC(=O)[C@H](CC(=O)O)NC(=O)[C@@H]2CCCN2C(=O)[C@H](Cc2ccc(OC)cc2)NC(=O)[C@H](C)NC(=O)[C@H](CC(C)C)NC(=O)c2oc3c(OC)c(OC)ccc3c2C)C(C)C)NC(=O)CNC(=O)[C@@H]2CCCN2C(=O)[C@H](CCCNC(=N)N)NC(=O)[C@H](Cc2ccc(Cl)cc2)NC(=O)[C@@H]2C[C@@H](O)CN2C(=O)[C@@H](NC(=O)[C@H](C)NC(=O)[C@H](CC(=O)O)NC(=O)[C@@H]2CCCN2C(=O)[C@H](Cc2ccc(OC)cc2)NC(=O)[C@H](C)NC(=O)[C@H](CC(C)C)NC(=O)c2oc3c(OC)c(OC)ccc3c2C)C(C)C)C(N)=O)C(C)C)cc1 [135I1]
EphA2 receptor [2]
  EphA2 degradation: not significantly more effective than its dimeric counterpart; also recorded: successfully degraded EphA2 receptor at nanomolar concentrations

B1: ephrinA1-Fc: dimeric natural ligand of EphA2, Fc dimerized ephrinA1 (protein)
chain: DRHTVFWNSSNPKFRNEDYTIHVQLNDYVDIICPHYEDHSVADAAMEQYILYLVEHEEYQLCQPQSKDQVRWQCNRPSAKHGPEKLSEKFQRFTPFTLGKEFKEGHSYYYISKPIHQHEDRCLRLKVTVSGKITHSPQAHDNPQEKRLAADDPEVRVLHSIGHS
modifications: left off: Fc, end not stated, kept
EphA2 receptor [3]
  total EphA2 level (anti-EphA2 blot): very effective in causing EphA2 degradation; also recorded: complete degradation of the receptor
WT-BxPC3 cells; WT BxPC3, 1 μg/mL, versus Fc
  cell migration, relative wound density at 36 h: WT cells treated with Fc migrated significantly faster than WT cells treated with ephrinA1-Fc
WT-BxPC3 cells; WT-BxPC3, 1 µg/mL
  cell migration, relative wound density after 30 h: significant decrease of cell migration
EphA2-KO BxPC3 cells
  cell migration, rate of migration over 36 h: did not significantly decrease the rate of migration
BxPC3 cells
  cell proliferation: not affected
